Holding throughout (test): cell-based or functional assay
The target in experiment [1] is HA of influenza B virus B/Brisbane/60/2008 (live virus) (influenza B virus B/Brisbane/60/2008).
Experiment [2] concerns the target HA of influenza B virus B/Florida/04/2006 (live virus) (influenza B virus B/Florida/04/2006).
The target in experiment [3] is HA of influenza B virus B/Harbin/7/1994 (live virus) (influenza B virus B/Harbin/7/1994).
The target in experiment [4] is HA of influenza B virus B/Malaysia/2506/2004 (live virus) (influenza B virus B/Malaysia/2506/2004).

Residue numbers refer to the chain shown, from its start. A value given as a limit tells only on which side of the number the result lay.

B1: CR10023 (antibody, V domains shown)
VH: EVQLVETGGGLVQPGRSLRLSCAASGFTFDDYAMHWVRQAPGKGLEWVSGINWVSTTMGYADSVKGRFTISRDNAKNSLYLQMNSLRAEDTALYYCAKDRLESAAIDILEGGTFDIRGQGTMVTVSS
VL: QSALTQPPSASGSPGQSVTISCTGTSSDVGGYNYVSWYQQHPGKAPKLMIYDVSKRPSGVPDRFSGSKSGNTASLTISGLQAEDEAEYYCSSYASGSTYVFGTGTKVTVL
As to B1, the HI titers was more than 50 µg/mL in experiment [1], 1.56 µg/mL in experiment [2], 1.1 µg/mL in experiment [3] and more than 50 µg/mL in experiment [4]. Moreover, the VNA titers in experiment [1] is 7.07 µg/mL; in experiment [2], less than 0.55 µg/mL; in experiment [3], 0.26 µg/mL. The molecule also yielded a VNA titers in µg/ml (*assay was done with 25 TCIDs) in experiment [4] of 12.5 µg/mL.

B2: CR11039 (antibody, V domains shown)
VH: EVQLVQSGAEVKKPGESVKISCKTSGYAFTGYGISWVRQAPGQGLEWMGWINTYKFNTNYAQNLQGRVTMTIDTSTSAAYMELRSLRYEDTAVYFCARDWAGPFGNAFDVWGQGTMVTVSS
VL: IQMTQSPSSLSASIGDRVAITCQASQDISDYLNWYQQQPGKAPKLLLYGASNLETGVPSRFSGSGSGTDFTFTISSLQPEDIATYYCQQYGNLPPTFGGGTKLEIK
Regarding B2, the HI titers in experiment [1] came out at 0.44 µg/mL; in experiment [2], 0.63 µg/mL. The values for the VNA titers in experiment [1], in experiment [2] and in experiment [3] were less than 0.14 µg/mL, less than 0.06 µg/mL and 0.02 µg/mL, respectively. Further, the VNA titers in µg/ml (*assay was done with 25 TCIDs) in experiment [4] came out at 0.06 µg/mL.

B3: CR8059 (antibody, V domains shown)
VH: EVQLVQSGAEVKKPGASVRVSCRASGYIFTESGITWVRQAPGQGLEWMGWISGYSGDTKYAQKLQGRVTMTKDTSTTTAYMELRSLRYDDTAVYYCARDVQYSGSYLGAYYFDYWSPGTLVTVSS
VL: SYVLTQPPSASGTPGQRVTISCSGSSSNIGTNYVYWYQQFPGTAPKLLIYRSYQRPSGVPDRFSGSKSGSSASLAISGLQSEDEADYYCATWDDSLNGWVFGGGTKLTVL
For the molecule B3, the HI titers in experiment [1], in experiment [2], in experiment [3] and in experiment [4] was more than 50 µg/mL throughout. The VNA titers in experiment [1] stood at 4.55 µg/mL; in experiment [2], 3.23 µg/mL; in experiment [3] it was 2.39 µg/mL. The VNA titers in µg/ml (*assay was done with 25 TCIDs) in experiment [4] stood at 17.7 µg/mL.

B4: CR8071 (antibody, V domains shown)
VH: B3 VH with E1Q
VL: QSVLTQPPSASGTPGQRVTISCSGSSSNIGTNYVYWYQQFPGTAPKLLIYRSYQRPSGVPDRFSGSKSGSSASLAISGLQSEDEADYYCATWDDSLDGWVFGGGTKLTVLR
For B4, the HI titers in experiment [1], in experiment [2], in experiment [3] and in experiment [4] was more than 50 µg/mL throughout. Besides, the VNA titers is 3.72 µg/mL in experiment [1], 2.12 µg/mL in experiment [2] and 2.34 µg/mL in experiment [3]. Moreover, the VNA titers in µg/ml (*assay was done with 25 TCIDs) in experiment [4] is 14.9 µg/mL.

B5: CR8034 (antibody, V domains shown)
VH: EVQLVETGGGLVQPGRSLRLSCAASGFTFDEYIMHWVRQAPGKGPEWVAGINWKGNFMGYADSVQGRFTISRDNAKNSLYLQMNSLRADDTALYYCAKDRLESSAMDILEGGTFDIWGQGTMVTVSS
VL: DIQMTQSPSSLSASVGDRVTITCRASQGIRNDLGWYQQKPGKAPKRLIYAASSLQSGVPSRFSGSGSGTDFTLTISSLQPEDFATYYCQQANTYPLTFGGGTKLEIK
As for B5, the VNA titers in experiment [2] came out at 0.12 µg/mL; in experiment [3] it was 0.29 µg/mL. In experiment [4], this molecule came in with a VNA titers in µg/ml (*assay was done with 25 TCIDs) of 2.31 µg/mL.

B6: CR8035 (antibody, V domains shown)
VH: B5 VH with T7S
VL: SSELTQDPAVSVALGQTVRITCQGDSLRSYYASWYQQKPGQAPVLVIYGKNNRPSGIPDRFSGSSSRNTASLTITGAQAEDEADYYCDSRDSSGTHYVFGGGTKVTVL
Consider B6, for which the VNA titers in experiment [2] and in experiment [3] was 0.66 µg/mL in each case. In addition, the VNA titers in µg/ml (*assay was done with 25 TCIDs) in experiment [4] stood at 4.46 µg/mL.

B7: CR8032 (antibody, V domains shown)
VH: B5 VH with T7S, T28S, P45L, A75G, D89E
VL: QSALTQPASVSGSPGQSITISCTGTRRDVGDYKYVSWYQQHPGKAPKLMIYDVSNRPSGVSNRFSGSKSGTTASLTISGLQAEDEADYYCSSYTTSNTRVFGGGTKLTVL
Regarding B7, the VNA titers in experiment [2] and in experiment [3] was 0.69 µg/mL each time. This molecule yielded a VNA titers in µg/ml (*assay was done with 25 TCIDs) in experiment [4] of 3.88 µg/mL.

B8: CR8031 (antibody, V domains shown)
VH: EVQLVESGGGLVQPGRSLRLSCAASGFTFDEYIMHWVRQAPGKGPEWVAGINWKGNFMGYADSVQGRFTISRDNAKNSLYLQMNSLRADDTALYYCAKDRLESSAMDILEGGTFDIWGQGTMVT
VL: QSALTQPASVSGSPGQSITISCTGTSSDVGGYNYVSWYQQHPGKAPKLMIYDVSSRPSGVSNRFSGSKSGDTASLSISGLQAEDEADYYCSSYTSSSTHVFGTGTKVTVL
As to B8, the VNA titers in experiment [2] was 0.88 µg/mL; in experiment [3], 1.24 µg/mL. For the same molecule, in experiment [4], the VNA titers in µg/ml (*assay was done with 25 TCIDs) was more than 50 µg/mL.

B9: CR8033 (antibody, V domains shown)
VH: B8 VH with S7T, T28S, I33T, P45L, A75G, D89E
VL: EIVLTQSPGTLSLSPGERATLSCRASQSVSSSYLAWYQQKPGQAPRLLIYGASTRATGIPARFSGSGSGTDFTLTISRLEPEDLAVYYCQQYGSSPWTFGQGTKVEIK
As to B9, the HI titers in experiment [1] was more than 50 µg/mL; in experiment [2], 0.22 µg/mL; in experiment [3], 0.39 µg/mL; in experiment [4], more than 50 µg/mL. The VNA titers was determined as 5.95 µg/mL in experiment [1], 0.02 µg/mL in experiment [2] and 0.03 µg/mL in experiment [3]. Moreover, in experiment [4], the VNA titers in µg/ml (*assay was done with 25 TCIDs) was 0.88 µg/mL.

B10: CR11036 (antibody, V domains shown)
VH: EVQLVQSGAEVKKPGASVTVSCKASGYAFTSYYLHWVRQAPGQGLEWMGIMNLHGGSTTYAQKFQGRVTMTRDTSTRTVYMELSGLRSEDSAVYYCARESPDSSGYPGYYGMDVWGQGTTVTVSS
VL: EIVLTQSPGTLSLSPGERATLSCRASQSVSSDFFAWYQQKRGQTPTLLIYGTSTRATGIPDRFSGSGSGTDFTLSVARLEPEDFAVYYCQQYGSSTWTFGQGTKVEIK
As for B10, the HI titers in experiment [1] and in experiment [2] was more than 10 µg/mL throughout. Further, the VNA titers in experiment [1] is less than 0.14 µg/mL; in experiment [2] it was less than 0.06 µg/mL; in experiment [3] it was 0.02 µg/mL. For the same molecule, the VNA titers in µg/ml (*assay was done with 25 TCIDs) in experiment [4] is 0.22 µg/mL.

B11: CR11038 (antibody, V domains shown)
VH: B10 VH with Q6E, T19K, L53P, R77S, G85S, S91T
VL: SYELTQPPSASGTPGQRVTMSCSGSRSNIGSNPVSWFQQLPGMVPKLLIYTNDQRPSGVPDRFSGSKSGPSASLAISGLQSEDEADYYCAAWDDSLKGWVFGGGTKLTVL
As for B11, the HI titers is 0.31 µg/mL in experiment [1] and 1.25 µg/mL in experiment [2]. Besides, the VNA titers is 0.55 µg/mL in experiment [1], less than 0.06 µg/mL in experiment [2] and 0.05 µg/mL in experiment [3]. For the same molecule, in experiment [4], the VNA titers in µg/ml (*assay was done with 25 TCIDs) was 2.1 µg/mL.

B12: CR11035 (antibody, V domains shown)
VH: QVQLVQSGAEVKKPGSSVKVSCKTSGYAFNGYGISWVRQAPGQGLEWVAWINTYKVNTHYAQNLRGRVTVSIDTSTTTAYMELRSLRSDDTAVYYCARDWGGPFGNAFDFWGQGTMVTVSS
VL: DIQMTQSPSSLAASIGDSVTITCRASQSVGSYLNWYQQKPGKAPKLLIYGASNVQSGVPSRFSGSESGTESTLTINNLQPEDSATYYCQQSYSTPRTFGQGTKVEIK
For B12, the HI titers in experiment [1] was 0.26 µg/mL; in experiment [2], more than 10 µg/mL. In addition, the VNA titers was 0.93 µg/mL in experiment [1], less than 0.06 µg/mL in experiment [2] and 0.16 µg/mL in experiment [3]. This molecule yielded a VNA titers in µg/ml (*assay was done with 25 TCIDs) in experiment [4] of 0.53 µg/mL.
